According to paper PMC5816164 (Proceedings of the National Academy of Sciences of the …, 2018):
Bridge positions count the residues as written; N and C are the ends. Ends that are not written are not given here.

Legend:
mice hippocampi = test: Acetylcholine quantification in hippocampus after microinjection; format: in vivo, mouse
thoracic aorta = tested on: thoracic aorta; set-up: species or system Sprague-Dawley rats
C57BL/6J mice = test: Microinjection into the hippocampus of mice; format: in vivo, mouse; settings: 1 μL of 20 μM SsTx and 40 μM retigabine mixture in the hippocampus
bronchial rings = tested on: bronchial rings; set-up: species or system Sprague-Dawley rats
KCNQ4 = KCNQ4 (Homo sapiens, UniProt P56696); test: Whole-cell patch clamp of KCNQ4 currents in HEK293T cells; format: cell-based; settings: for effect of alanine substitution on inhibition of KCNQ4: 10 μM and 50 μM toxin mutants compared with WT SsTx (Fig. 2 A and B); for effect of conservative replacement on inhibition of KCNQ channels: 10 μM toxin, KCNQ4 currents (Fig. S2D)
Sequence of KCNQ4 (P56696 whole entry): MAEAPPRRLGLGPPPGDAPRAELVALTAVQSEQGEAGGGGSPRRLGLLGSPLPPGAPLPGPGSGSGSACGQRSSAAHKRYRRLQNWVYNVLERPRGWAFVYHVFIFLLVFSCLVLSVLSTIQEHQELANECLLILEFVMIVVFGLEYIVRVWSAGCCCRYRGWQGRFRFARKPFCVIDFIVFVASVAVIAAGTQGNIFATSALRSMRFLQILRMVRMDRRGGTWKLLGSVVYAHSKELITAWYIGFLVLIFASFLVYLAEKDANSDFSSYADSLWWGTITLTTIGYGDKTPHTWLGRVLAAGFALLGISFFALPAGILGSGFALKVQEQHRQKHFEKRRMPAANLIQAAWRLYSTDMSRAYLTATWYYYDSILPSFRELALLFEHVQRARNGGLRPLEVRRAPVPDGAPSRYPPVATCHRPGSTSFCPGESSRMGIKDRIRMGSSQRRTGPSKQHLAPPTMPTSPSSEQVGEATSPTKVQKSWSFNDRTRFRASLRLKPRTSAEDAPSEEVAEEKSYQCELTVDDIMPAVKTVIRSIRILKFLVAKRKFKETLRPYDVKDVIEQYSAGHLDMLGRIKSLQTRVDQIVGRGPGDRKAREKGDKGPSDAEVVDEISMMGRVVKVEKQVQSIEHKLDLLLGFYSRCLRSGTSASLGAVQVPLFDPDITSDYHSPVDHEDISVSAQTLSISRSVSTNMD

KCNQ4_D266G = KCNQ4_D266G (UniProt P56696)
Sequence of KCNQ4_D266G (P56696 whole entry D266G): as the sequence (P56696 whole entry) above, with D266G counted along it

KCNQ4_D288A = KCNQ4_D288A (UniProt P56696)
Sequence of KCNQ4_D288A (P56696 whole entry D288A): as the sequence (P56696 whole entry) above, with D288A counted along it

O=C1N(c2ccccc2)c2ccccc2C1(Cc1ccncc1)Cc1ccncc1 [linopirdine]
increase of acetylcholine concentration (mice hippocampi; mice hippocampi, 1 μL of 100 μM, 30 min after microinjection, n = 6): ~81.8%

CCOC(=O)Nc1ccc(NCc2ccc(F)cc2)cc1N [retigabine]
effect on vessel toxicity induced by centipede crude venom and SsTx (thoracic aorta): significantly reduced | effect on SsTx-induced seizure (C57BL/6J mice): inhibited | effect on SsTx-induced increase in acetylcholine secretion (mice hippocampi; mixture of 10 μM SsTx and 40 μM RTG, n = 3): inhibited the SsTx-induced increase in spiking frequency and acetylcholine secretion | effect on bronchial ring contraction induced by crude venom or SsTx (bronchial rings): contraction can be reduced by retigabine

K10A: SsTx single point mutant, alanine substitution of K10 (EVIKKDTPYAKRKFPYKSECLKACATSFTGGDESRIQEGKPGFFKCTCYFTTG)
effect of alanine substitution on inhibition of KCNQ4 (KCNQ4): reduces the toxin’s inhibitory effect on KCNQ4

K11A: SsTx single point mutant, alanine substitution of K11 (EVIKKDTPYKARKFPYKSECLKACATSFTGGDESRIQEGKPGFFKCTCYFTTG)
effect of alanine substitution on inhibition of KCNQ4 (KCNQ4): reduces the toxin’s inhibitory effect on KCNQ4

K13A: SsTx single point mutant, alanine substitution of K13 (EVIKKDTPYKKRAFPYKSECLKACATSFTGGDESRIQEGKPGFFKCTCYFTTG; ends and bridges not checked; cysteine pairing not given here)
effect of alanine substitution on inhibition of KCNQ4 (KCNQ4): reduces the toxin’s inhibitory effect on KCNQ4

K13R: SsTx point mutant, lysine 13 replaced with arginine (EVIKKDTPYKKRRFPYKSECLKACATSFTGGDESRIQEGKPGFFKCTCYFTTG; ends and bridges not checked; cysteine pairing not given here)
effect of conservative replacement on inhibition of KCNQ channels (KCNQ4): minimal influence on SsTx inhibition of KCNQ channels

R12A: SsTx single point mutant, alanine substitution of R12 (EVIKKDTPYKKAKFPYKSECLKACATSFTGGDESRIQEGKPGFFKCTCYFTTG; ends and bridges not checked; cysteine pairing not given here)
effect of alanine substitution on inhibition of KCNQ4 (KCNQ4): reduces the toxin’s inhibitory effect on KCNQ4

R12K: SsTx point mutant, arginine 12 replaced with lysine (EVIKKDTPYKKKKFPYKSECLKACATSFTGGDESRIQEGKPGFFKCTCYFTTG; ends and bridges not checked; cysteine pairing not given here)
effect of conservative replacement on inhibition of KCNQ channels (KCNQ4): minimal influence on SsTx inhibition of KCNQ channels

B1: Ssm Spooky Toxin (SsTx) (peptide)
chain: EVIKKDTPYKKRKFPYKSECLKACATSFTGGDESRIQEGKPGFFKCTCYFTTG
modifications: disulfide 20-46, 24-48
inhibitory activity lost in the presence of 10 μM SsTx, against WT KCNQ4 (KCNQ4_D266G): 99% | inhibitory activity lost in the presence of 10 μM SsTx, against WT KCNQ4 (KCNQ4_D288A): 97%
